# US9081020B2, “Mutant proteins and methods for selecting them” (Heptares Therapeutics Limited, priority 2008, dated 2015)
# Where two headings read alike, the source gives them in different places.
# System: M1 mAChR
# Assay type: physicochemical
# Settings: for stability relative to wild-type (retention of bound 3H-NMS), in words: BOG or DDM; for % 3H-NMS retained BOG / % loss/wt / mean % retained: 0.82% BOG, 4° C., 3 h; for % 3H-NMS retained BOG: whole E. coli BL21 cells, single culture; for % loss/wt: % loss relative to wild-type control; for mean % retained: mean of the cultures
# Procedure: This concentration was determined by analysing wild-type M1 mAChRs expressed in the inner cell membranes of intact E. Coli strain BL21 cells. The cells were pre-labelled with the radiolabelled antagonist 3H—N-methyl scopolamine and resuspended to a pre-determined cell density (Absorbance at 600 nm=2.0) in a chosen buffer (in this case 50 mM sodium phosphate, 1 mM EDTA, pH 7.5). […] The wild-type M1 mAChRs were titrated by the addition of increasing concentrations of beta octyl glucoside dissolved in the same buffer for different times (e.g. 1 h, 2 h, 3 h, 5 h, 15 h) and at different temperatures (e.g. 4° C., 15° C.). The loss of specifically-bound radioligand was then measured after recovering the cells by centrifugation (15000×g, 15 min.). In the example, the centrifugation step was performed on duplicate 1 ml aliquots of the cells. The experiment was repeated 3 times. […] It will be appreciated that the cell density, detergent concentration and other parameters of the assay may be varied to adjust the loss of activity as appropriate.
# (a) A state of in-situ destabilisation of a particular membrane protein in a particular cell membrane as a result of the addition of a particular concentration of a particular detergent, can be defined by the loss of the characteristic specific ligand binding activity of the membrane protein for a particular ligand of interest in the presence of a defined concentration of a particular detergent molecule or other solubilising agent.
# A preferred version of the assay is destabilisation of a membrane protein-ligand complex in a detergent-enriched membrane. The membrane protein, either in a membrane preparation, or in intact cells in-vivo or ex-vivo, is pre-incubated with a labelled version of the ligand, the label, for instance, being a radioactive label, or a fluorescent label, and the binding step preferably being allowed to proceed to equilibrium, defined as the achievement of a time-invariant level of binding. To define membrane protein-independent, or non-specific, binding the binding step is performed with the addition of a second non-labelled ligand, called the competing ligand, having an appropriate membrane protein-specific pharmacology, at a concentration sufficient fully to occupy the binding sites of the membrane protein and thereby exclude the binding of the labelled ligand. The difference between the binding of the labelled ligand in the absence and presence of the competing ligand is defined as the specific binding of the labelled ligand. Measurement of binding requires a suitable method for separating and measuring bound ligand. Characteristically, this involves centrifugation of intact cells or membranes for a time and at a centrifugal force adequate to pellet them (for instance, 15000×g for 15 min in the case of E. coli cells, or 100,000×g for plasma membrane preparations), or filtration of a membrane suspension e.g. through a suitable filter paper such as glass fibre paper e.g. GF-B or GF-C followed by counting of radioactivity. Alternatively, it might involve the measurement of an optical signal such as enhancement of fluorescence emission in the case of fluorescent ligands.
# To perform the in-situ destabilisation assay, a pre-determined concentration of the detergent or other destabilising agent of choice is mixed with a membrane or cell suspension containing the pre-labelled membrane protein in an appropriate buffer composition at a particular temperature and for a particular time, determined as described below.
Molecule,"stability relative to wild-type (retention of bound 3H-NMS), in words",% loss/wt,mean % retained [%],further results
M145A: Ala-mutant in the transmembrane region of the M1 mAChR (protein) MNTSAPPAVSPNITVLAPGKGPWQVAFIGITTGLLSLATVTGNLLVLISFKVNTELKTVNNYFLLSLACADLIIGTFSMNLYTTYLLMGHWALGTLACDLWLALDYVASNASVMNLLLISFDRYFSVTRPLSYRAKRTPRRAALAIGLAWLVSFVLWAPAILFWQYLVGERTVLAGQCYIQFLSQPIITFGTAMAAFYLPVTVMCTLYWRIYRETENRARELAALQGSETPGKGGGSSSSSERSQPGAEGSPETPPGRCCRCCRAPRLLQAYSWKEEEEEDEGSMESLTSSEGEEPGSEVVIKMPMVDPEAQAPTKQPPRSSPNTVKRPTKKGRDRAGKGQKPRGKEQLAKRKTFSLVKEKKAARTLSAILLAFILTWTPYNIMVLVSTFCKDCVPETLWELGYWLCYVNSTINPMCYALCNKAFRDTFRLLLLCRWDKRRWRKIPKRPGSVHRTPSRQC,smaller enhancements,,,
I119A: Ala-mutant in the transmembrane region of the M1 mAChR (protein) MNTSAPPAVSPNITVLAPGKGPWQVAFIGITTGLLSLATVTGNLLVLISFKVNTELKTVNNYFLLSLACADLIIGTFSMNLYTTYLLMGHWALGTLACDLWLALDYVASNASVMNLLLASFDRYFSVTRPLSYRAKRTPRRAALMIGLAWLVSFVLWAPAILFWQYLVGERTVLAGQCYIQFLSQPIITFGTAMAAFYLPVTVMCTLYWRIYRETENRARELAALQGSETPGKGGGSSSSSERSQPGAEGSPETPPGRCCRCCRAPRLLQAYSWKEEEEEDEGSMESLTSSEGEEPGSEVVIKMPMVDPEAQAPTKQPPRSSPNTVKRPTKKGRDRAGKGQKPRGKEQLAKRKTFSLVKEKKAARTLSAILLAFILTWTPYNIMVLVSTFCKDCVPETLWELGYWLCYVNSTINPMCYALCNKAFRDTFRLLLLCRWDKRRWRKIPKRPGSVHRTPSRQC,reductions,,,
L65A + L151A: M1 mAChR double mutant (protein) MNTSAPPAVSPNITVLAPGKGPWQVAFIGITTGLLSLATVTGNLLVLISFKVNTELKTVNNYFLASLACADLIIGTFSMNLYTTYLLMGHWALGTLACDLWLALDYVASNASVMNLLLISFDRYFSVTRPLSYRAKRTPRRAALMIGLAWAVSFVLWAPAILFWQYLVGERTVLAGQCYIQFLSQPIITFGTAMAAFYLPVTVMCTLYWRIYRETENRARELAALQGSETPGKGGGSSSSSERSQPGAEGSPETPPGRCCRCCRAPRLLQAYSWKEEEEEDEGSMESLTSSEGEEPGSEVVIKMPMVDPEAQAPTKQPPRSSPNTVKRPTKKGRDRAGKGQKPRGKEQLAKRKTFSLVKEKKAARTLSAILLAFILTWTPYNIMVLVSTFCKDCVPETLWELGYWLCYVNSTINPMCYALCNKAFRDTFRLLLLCRWDKRRWRKIPKRPGSVHRTPSRQC,,0.51,73,% 3H-NMS retained BOG (listed as L65A + L151A 1): 70%; % 3H-NMS retained BOG (listed as L65A + L151A 2): 76%
L65A + M145A: M1 mAChR double mutant (protein) MNTSAPPAVSPNITVLAPGKGPWQVAFIGITTGLLSLATVTGNLLVLISFKVNTELKTVNNYFLASLACADLIIGTFSMNLYTTYLLMGHWALGTLACDLWLALDYVASNASVMNLLLISFDRYFSVTRPLSYRAKRTPRRAALAIGLAWLVSFVLWAPAILFWQYLVGERTVLAGQCYIQFLSQPIITFGTAMAAFYLPVTVMCTLYWRIYRETENRARELAALQGSETPGKGGGSSSSSERSQPGAEGSPETPPGRCCRCCRAPRLLQAYSWKEEEEEDEGSMESLTSSEGEEPGSEVVIKMPMVDPEAQAPTKQPPRSSPNTVKRPTKKGRDRAGKGQKPRGKEQLAKRKTFSLVKEKKAARTLSAILLAFILTWTPYNIMVLVSTFCKDCVPETLWELGYWLCYVNSTINPMCYALCNKAFRDTFRLLLLCRWDKRRWRKIPKRPGSVHRTPSRQC,,0.34,82,% 3H-NMS retained BOG (listed as L65A + M145A 1): 91%; % 3H-NMS retained BOG (listed as L65A + M145A 2): 73%
L65G: M1 mAChR mutant L65G recovered by randomisation of the codon for position 65 (protein) MNTSAPPAVSPNITVLAPGKGPWQVAFIGITTGLLSLATVTGNLLVLISFKVNTELKTVNNYFLGSLACADLIIGTFSMNLYTTYLLMGHWALGTLACDLWLALDYVASNASVMNLLLISFDRYFSVTRPLSYRAKRTPRRAALMIGLAWLVSFVLWAPAILFWQYLVGERTVLAGQCYIQFLSQPIITFGTAMAAFYLPVTVMCTLYWRIYRETENRARELAALQGSETPGKGGGSSSSSERSQPGAEGSPETPPGRCCRCCRAPRLLQAYSWKEEEEEDEGSMESLTSSEGEEPGSEVVIKMPMVDPEAQAPTKQPPRSSPNTVKRPTKKGRDRAGKGQKPRGKEQLAKRKTFSLVKEKKAARTLSAILLAFILTWTPYNIMVLVSTFCKDCVPETLWELGYWLCYVNSTINPMCYALCNKAFRDTFRLLLLCRWDKRRWRKIPKRPGSVHRTPSRQC,,1.06,44,% 3H-NMS retained BOG (listed as L65 G 1): 49%; % 3H-NMS retained BOG (listed as L65 G 2): 39%
L151A: Ala-mutant in the transmembrane region of the M1 mAChR (protein) MNTSAPPAVSPNITVLAPGKGPWQVAFIGITTGLLSLATVTGNLLVLISFKVNTELKTVNNYFLLSLACADLIIGTFSMNLYTTYLLMGHWALGTLACDLWLALDYVASNASVMNLLLISFDRYFSVTRPLSYRAKRTPRRAALMIGLAWAVSFVLWAPAILFWQYLVGERTVLAGQCYIQFLSQPIITFGTAMAAFYLPVTVMCTLYWRIYRETENRARELAALQGSETPGKGGGSSSSSERSQPGAEGSPETPPGRCCRCCRAPRLLQAYSWKEEEEEDEGSMESLTSSEGEEPGSEVVIKMPMVDPEAQAPTKQPPRSSPNTVKRPTKKGRDRAGKGQKPRGKEQLAKRKTFSLVKEKKAARTLSAILLAFILTWTPYNIMVLVSTFCKDCVPETLWELGYWLCYVNSTINPMCYALCNKAFRDTFRLLLLCRWDKRRWRKIPKRPGSVHRTPSRQC,smaller enhancements,,,
C69A: Ala-mutant in the transmembrane region of the M1 mAChR (protein) MNTSAPPAVSPNITVLAPGKGPWQVAFIGITTGLLSLATVTGNLLVLISFKVNTELKTVNNYFLLSLAAADLIIGTFSMNLYTTYLLMGHWALGTLACDLWLALDYVASNASVMNLLLISFDRYFSVTRPLSYRAKRTPRRAALMIGLAWLVSFVLWAPAILFWQYLVGERTVLAGQCYIQFLSQPIITFGTAMAAFYLPVTVMCTLYWRIYRETENRARELAALQGSETPGKGGGSSSSSERSQPGAEGSPETPPGRCCRCCRAPRLLQAYSWKEEEEEDEGSMESLTSSEGEEPGSEVVIKMPMVDPEAQAPTKQPPRSSPNTVKRPTKKGRDRAGKGQKPRGKEQLAKRKTFSLVKEKKAARTLSAILLAFILTWTPYNIMVLVSTFCKDCVPETLWELGYWLCYVNSTINPMCYALCNKAFRDTFRLLLLCRWDKRRWRKIPKRPGSVHRTPSRQC,reductions,,,
